For assay [1], the target named is Lyb-2.1 antigen expressed at the surface of B lymphocytes (mouse) (UniProt P21855). In words: cell-based or functional assay.
Assay [2] addresses MHC class II molecule I-E^d expressed at the surface of A20 cells and mouse splenocytes (mouse) (UniProt P01904). In words: cell-based or functional assay.
Assay [3] has the same target. In words: flow cytometry on mouse splenocytes, 10 nM complex, B cells gated with anti-CD19-PE.

Results on two substances are retold here after patent publication US20130195908A1.

Chain of UniProt P01904 (P01904 26-255, chain 1 of 2): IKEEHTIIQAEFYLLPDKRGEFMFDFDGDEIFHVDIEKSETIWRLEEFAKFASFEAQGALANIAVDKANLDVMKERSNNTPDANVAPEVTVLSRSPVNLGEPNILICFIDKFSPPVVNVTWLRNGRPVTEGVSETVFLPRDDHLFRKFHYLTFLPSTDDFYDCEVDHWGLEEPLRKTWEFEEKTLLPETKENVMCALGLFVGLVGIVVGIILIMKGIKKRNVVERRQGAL
Chain of UniProt P01904 (P01915 32-264, chain 2 of 2, further chain): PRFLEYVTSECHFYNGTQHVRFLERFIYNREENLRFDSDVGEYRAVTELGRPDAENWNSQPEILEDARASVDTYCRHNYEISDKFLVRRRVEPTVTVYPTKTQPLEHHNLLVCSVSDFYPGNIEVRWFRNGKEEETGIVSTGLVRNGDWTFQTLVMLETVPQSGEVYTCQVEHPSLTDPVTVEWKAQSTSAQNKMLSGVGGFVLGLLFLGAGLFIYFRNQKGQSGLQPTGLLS
Chain of UniProt P21855 (P21855 whole entry): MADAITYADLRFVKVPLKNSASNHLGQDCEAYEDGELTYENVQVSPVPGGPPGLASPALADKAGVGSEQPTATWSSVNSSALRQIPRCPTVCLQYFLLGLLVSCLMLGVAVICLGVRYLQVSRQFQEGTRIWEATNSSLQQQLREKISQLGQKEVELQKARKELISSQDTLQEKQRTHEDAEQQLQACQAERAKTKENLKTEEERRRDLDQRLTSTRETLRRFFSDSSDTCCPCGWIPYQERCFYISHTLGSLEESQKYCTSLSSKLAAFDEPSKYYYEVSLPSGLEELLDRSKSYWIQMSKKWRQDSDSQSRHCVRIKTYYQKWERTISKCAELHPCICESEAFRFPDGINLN

“10-1.D.2/ZZDTR-BD complex (mouse monoclonal IgG2a 10-1.D.2, anti-Lyb-2.1, complexed with ZZDTR-BD)”: the amount of ZZDTR-BD needed to reach the same level of T4B6 stimulation (IL-2 secretion), A20 cells as APCs, against free ZZDTR-BD in assay [1] worked out at 3.8 times lower.
In assay [2], “14-4-4S/ZZDTR-BD complex (mouse monoclonal IgG2a 14-4-4S, anti-MHC class II I-E^d, complexed with ZZDTR-BD)” registered an amount of ZZDTR-BD needed to reach the same level of T4B6 stimulation (IL-2 secretion), A20 cells as APCs, against free ZZDTR-BD of 13.4 times lower and an amount of ZZDTR-BD needed to reach the same level of T4B6 stimulation (IL-2 secretion), splenocytes as APCs, against free ZZDTR-BD of 5.2 times lower. Moreover, the percent of B lymphocytes labeled in assay [3] amounted to 68.5%.
